Experimental data taken from patent US20210121565A1 (Eli Lilly, published 2021).

What was measured:
[1] = target: T1, aggregate tau fibrils purified from AD brain homogenates (MC1-affinity purified) (human, UniProt P10636-8 2-441, limits assumed); test: ELISA, purified AD tau fibrils coated on plate, anti-human IgG-HRP detection
T1 construct: Brain-derived material coated on ELISA plates at 0.7 ug/ml total tau; also called Purified AD Tau Fibrils; purified tau fibrils
Experimental: Enzyme-Linked Immunosorbant Assay (ELISA) is used to determine relative binding affinity of the exemplified anti-Tau antibody (having both HCs of SEQ ID NO.2 and both LCs of SEQ ID NO.1) to aggregate tau fibrils from AD brain homogenates. AD brain homogenates are prepared from approx. 80 g of cortex from brain of AD patients. Briefly, buffer (TBS/1 mM PMSF/1× Complete® protease inhibitor cocktail (Roche, p/n. 11 697 498 001) and phosphatase inhibitor (ThermoFischer, p/n. 78428)) is added to the AD brain tissue at about 10 ml/1 g (tissue). Tissue is homogenized using a handheld Kinematica Polytron at speed 6-7. Tissue is then further homogenized using Parr Bomb (Parr Instrument, p/n. 4653) at 1500 psi of nitrogen for 30 mins. Homogenate is spun at 28,000 g (J14 Beckman rotor) for 30 min at 4° C. Supernatant is collected, pooled and run over a 4 cm high guard column of Sepharose 400 Superflow to remove larger debris, then run over 25 ml MC1-Affigel 10 column at a flow rate of 50-60 ml per hour, in order to purify MC1-binding tau fibrils. To maximize the recovery of purification, supernatants are recycled through MC-1 column over 18-20 hours at 4° C. […] The concentration of tau within the tau fibrils purified from AD brain homogenate is measured by sandwich ELISA using DA-9 capture antibody and CP27 detection antibody. […]

[2] = target: T2, human tau aggregates (amino acid sequence of SEQ ID NO.13) (human, UniProt P10636 2-758); test: SPR (Biacore 2000, 25 C), antibody captured on protein A, tau aggregate as analyte, 1:1 fit
T2 construct: also called fibril tau; tau fibril aggregate
Experimental: (§1) Surface Plasmon Resonance (SPR) assay, measured with a BIACORE® 2000 instrument (primed with HBS-EP+running buffer (GE Healthcare, 10 mM Hepes pH7.4+150 mM NaCl+3 mM EDTA+0.05% surfactant P20) at 25° C.), is used to measure binding of an exemplified anti-Tau antibody (having both HCs of SEQ ID NO.2 and both LCs of SEQ ID NO.1) to both human monomeric (e.g., native or non-aggregate) tau and human tau aggregates (both having the amino acid sequence as set forth in SEQ ID NO.13).
(§2) Except as noted, all reagents and materials are from BIACORE® AB (Upsala, Sweden). A CMS chip containing immobilized protein A (generated using standard NHS-EDC amine coupling) on all four flow cells (FC) is used to employ a capture methodology. Antibody samples are prepared at 0.5 μg/mL by dilution into running buffer. […]
(§3) Data of binding to tau aggregate is processed using standard double-referencing and fit to a 1:1 binding model using Biacore 2000 Evaluation software, version 4.1, to determine the association rate (kₒₙ, M⁻¹s⁻¹ units), dissociation rate (koff, s⁻¹ units), and Rₘₐₓ (RU units). The equilibrium dissociation constant (KD) was calculated from the relationship KD=koff/kₒₙ, and is in molar units. Data of binding to monomeric tau cannot be determined accurately by SPR as described above due to rapid on- and off-rates. […]

[3] = target: T3, human monomeric (native or non-aggregate) tau (human, UniProt P10636 2-758); test: SPR (Biacore 2000, 25 C), antibody captured on protein A, tau as analyte, steady state fit
T3 construct: No tag or expression host is stated; also called Monomeric Tau; monomeric tau
Experimental: as §1, §2, §3

[4] = target: T2, human tau aggregates (amino acid …); test: SPR (Biacore 2000, 25 C), antibody captured on protein A, tau aggregate as analyte, KD=koff/kon, not normalized for avidity
Experimental: as §1, §2, §3

T2 sequence (P10636 other isoform, or with tags, fused parts or gaps limits assumed): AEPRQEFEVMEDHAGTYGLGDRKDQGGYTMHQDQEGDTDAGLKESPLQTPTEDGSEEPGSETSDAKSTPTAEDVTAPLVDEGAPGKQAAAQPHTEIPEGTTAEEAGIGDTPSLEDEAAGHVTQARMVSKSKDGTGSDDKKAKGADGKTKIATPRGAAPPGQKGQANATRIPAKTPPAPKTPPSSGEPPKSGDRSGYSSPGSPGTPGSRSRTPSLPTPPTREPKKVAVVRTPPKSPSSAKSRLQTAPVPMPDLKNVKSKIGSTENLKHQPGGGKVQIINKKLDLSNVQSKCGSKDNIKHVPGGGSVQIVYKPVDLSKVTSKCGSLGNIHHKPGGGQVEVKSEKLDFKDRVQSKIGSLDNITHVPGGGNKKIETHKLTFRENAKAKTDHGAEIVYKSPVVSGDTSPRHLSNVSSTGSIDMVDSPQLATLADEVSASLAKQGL
T3 sequence (P10636 other isoform, or with tags, fused parts or gaps limits assumed): as above
T1 sequence (P10636 other isoform, or with tags, fused parts or gaps limits assumed): as above

- EC50 [1]: 0.0068 nM
- koff [2]: < 1e-05 s⁻¹
- kon [2]: 45900 M⁻¹ s⁻¹
- Kd [3]: 235 nM
- Kd [4]: < 0.22 nM
B1: Exemplified anti-Tau antibody (having both HCs of SEQ ID NO.2 and both LCs of SEQ ID NO.1) (antibody, human IgG4 S228P, kappa, F234A L235A, V domains shown)
VH: EVQLVQSGAEVKKPGESLKISCKGSGYTFSNYWIEWVRQMPGKGLEWMGEILPGSDSIKYEKNFKGQVTISADKSISTAYLQWSSLKASDTAMYYCARRGNYVDDWGQGTLVTVSS
VL: EIVLTQSPGTLSLSPGERATLSCRSSQSLVHSNQNTYLHWYQQKPGQAPRLLIYKVDNRFSGIPDRFSGSGSGTDFTLTISRLEPEDFAVYYCSQSTLVPLTFGGGTKVEIKR
notes: It was expressed in CHO cells; also called Exemplified anti-Tau mAb; exemplified tau monoclonal antibody
